Laboratory results as given in patent publication US11026999B2, “Insulin glargine/lixisenatide fixed ratio formulation” (SANOFI-AVENTIS DEUTSCHLAND GMBH, priority 2013, dated 2021).

Legend:
type 2 diabetic patients [1] = experiment: 2-hour plasma glucose excursion during standardized meal test (Example 1); format: in vivo, human; conditions: mITT population; for 2-hour plasma glucose excursion change from baseline to Week 24 (LOCF), LS Mean (SE): ANCOVA
Text: The diabetes type 2 patient may have a glucose excursion (in particular a 2-hour postprandial glucose excursion of at least 2 mmol/L, at least 3 mmol/L, at least 4 mmol/L, at least 5 mmol/L, at least 5.5 mmol/L, at least 6 mmol/L, at least 6.5 mmol/L, or at least 7 mmol/L at the onset of the treatment with the composition of the present invention. In the present invention, the glucose excursion is in particular the difference of the 2-hour postprandial plasma glucose concentration and the plasma glucose concentration 30 minutes prior to a meal test.
(§1) Criteria for Evaluation: • Efficacy: • Primary Endpoint: • Change in HbA1c from baseline to Week 24 • Secondary Endpoints: • Change in 2-hour PPG during meal test from baseline to Week 24 • Change in 2-hour plasma glucose excursion during meal test from baseline to Week 24 • Percentage of patients reaching HbA1c ≤6.5% or <7% at Week 24 • Change in 7-point SMPG profiles from baseline to Week 24 (each time point and mean daily value) • Change in body weight from baseline to Week 24, • Average daily Insulin glargine dose at Week 24 • Change in FPG from baseline to Week 24 • Percentage of patients requiring rescue therapy during the 24-week open-label treatment period • Change in 30-minute and 1-hour PPG and plasma glucose excursion during meal test from baseline to week 24 • Percentage of patients reaching HbA1c <7% at week 24 with no documented symptomatic hypoglycemia during the 24-week open label treatment period • Percentage of patients reaching HbA1c <7% with no weight gain at week 24
(§2) All continuous secondary efficacy endpoints were analyzed using a similar ANCOVA model with treatment, randomization strata of screening HbA1c (<8%, ≥8%), randomization strata of screening BMI (<30 kg/m^2, ≥30 kg/m^2) and country as fixed effects and using the baseline value of the corresponding parameter as a covariate. Insulin glargine dose was not included in the ANCOVA model as a covariate since patients enrolled were insulin-naïve.

type 2 diabetic patients [2] = experiment: Symptomatic hypoglycemia (Example 1); format: in vivo, human; conditions: Safety population
Text: Safety: Adverse events, serious adverse events, symptomatic hypoglycemia, vital signs, electrocardiogram (ECG), safety laboratory values.
Symptomatic hypoglycemia events were documented on a specific hypoglycemia event form, and not an AE CRF page, and thus were not included in the TEAE summaries.

type 2 diabetic patients [3] = experiment: Injection site reactions and allergic reactions adjudicated by ARAC (Example 1); format: in vivo, human
Text: A total of 6 patients (5 patients in the combination group and 1 patient in the insulin glargine group) experienced injection site reactions (Table 19). None of these reactions were considered serious or severe or led to treatment discontinuation.
A total of 2 patients (1 [0.6%] in each group) reported 6 events positively adjudicated as allergic reactions by the ARAC with the same diagnosis of allergic rhinitis. None was adjudicated as possibly related to the IMP (table 20).

type 2 diabetic patients [4] = conditions: in vivo
Method: Safety: The safety analysis was conducted on the safety population, defined as all randomized patients who received at least one dose of IMP (regardless of the amount of treatment administered). The evaluation of AEs, laboratory, vital sign, and ECG data was descriptive.

Body weight (Example 1) = format: in vivo, human; conditions: for Body weight change from baseline to Week 24 (LOCF), LS Mean (SE): ANCOVA
Text: as §1, §2

type 2 diabetic patients [5] = experiment: Premature treatment discontinuation, patient disposition (Example 1); conditions: human, in vivo
Text: During the 24-week study treatment period, 11 (6.8%) combination-treated patients prematurely discontinued the IMP, compared with 3 (1.9%) insulin glargine-treated patients. For combination-treated patients, the most common reasons for treatment discontinuation was “adverse event” (6 patients [3.7%] versus 0 patient in the insulin glargine group) followed by “other reasons” (4 patients [2.5%] versus 2 patients [1.2%] in the insulin glargine group).

type 2 diabetic patients [6] = experiment: Lipase, amylase and calcitonin monitoring (Example 1); set-up: species or system human; conditions: in vivo
Text: Per protocol, any increase in amylase and/or lipase above twice the upper limit of normal range (ULN) or in Calcitonin ≥20 pg/mL that had been confirmed by a repeat measurement was to be monitored and documented on a specific AE form. […] No patients reported a TEAE of increased calcitonin (≥20 pg/mL).
The number of patients who had at least 1 value of lipase or amylase ULN, or at least 1 value of calcitonin ≥20 pg/ml during the on-treatment period was also summarized. One patient in the insulin glargine group had at least 1 value of amylase ≥3 ULN, and 5 patients (4 in the combination group and 1 in the insulin glargine group) had at least 1 value of lipase ≥3 ULN. One patient in the insulin glargine group had 1 value of calcitonin ≥20 pg/ml (but <50 pg/ml) with retested values within the normal range.

type 2 diabetic patients [7] = experiment: Major cardiovascular events adjudicated by CAC (Example 1); set-up: species or system human; conditions: in vivo
Text: One patient in the combination group and one patient in the insulin glargine group had respectively two events (hospitalization for unstable angina and percutaneous coronary intervention (PCI]) and one event (PCI) adjudicated as major cardiovascular events by cardiovascular events adjudication committee (CAC).

[8] = investigator reported terms, Safety population

Gly(A21)-Arg(B31)-Arg(B32)-human insulin [Insulin Glargine]
2-hour plasma glucose excursion at Week 24 (LOCF), Mean (SD) (type 2 diabetic patients [1]): 5.33 (2.79) mmol/L | 2-hour plasma glucose excursion at Week 24 (LOCF), Median (type 2 diabetic patients [1]): 5.05 mmol/L | 2-hour plasma glucose excursion change from baseline to Week 24 (LOCF), Mean (SD) (type 2 diabetic patients [1]): −0.61 (3.03) mmol/L | 2-hour plasma glucose excursion change from baseline to Week 24 (LOCF), Median (type 2 diabetic patients [1]): -0.75 mmol/L | 2-hour plasma glucose excursion change from baseline to Week 24 (LOCF), LS Mean (SE) (type 2 diabetic patients [1]): −0.67 (0.269) mmol/L | 2-hour plasma glucose excursion change from baseline to Week 24 (LOCF), LS Mean (SE) (type 2 diabetic patients [1]; listed as insulin glargine): -0.67 mmol/L | Documented symptomatic hypoglycemia (plasma glucose <54 mg/dL [3.0 mmol/L]): Number of events (type 2 diabetic patients [2]): 10 | Documented symptomatic hypoglycemia (plasma glucose <54 mg/dL [3.0 mmol/L]): Number of events per 100 patient years (type 2 diabetic patients [2]): 13.2 events per 100 patient years | Documented symptomatic hypoglycemia (plasma glucose <54 mg/dL [3.0 mmol/L]): Number of patients with events (type 2 diabetic patients [2]): 4 (2.5%) n (%) | Documented symptomatic hypoglycemia (plasma glucose <60 mg/dL [3.3 mmol/L]): Number of events (type 2 diabetic patients [2]): 18 | Documented symptomatic hypoglycemia (plasma glucose <60 mg/dL [3.3 mmol/L]): Number of events per 100 patient years (type 2 diabetic patients [2]): 23.8 events per 100 patient years | Documented symptomatic hypoglycemia (plasma glucose <60 mg/dL [3.3 mmol/L]): Number of patients with events (type 2 diabetic patients [2]): 9 (5.6%) n (%) | Documented symptomatic hypoglycemia (plasma glucose <=70 mg/dL [3.9 mmol/L]): Number of events (type 2 diabetic patients [2]): 79 | Documented symptomatic hypoglycemia (plasma glucose <=70 mg/dL [3.9 mmol/L]): Number of events per 100 patient years (type 2 diabetic patients [2]): 104.5 events per 100 patient years | Documented symptomatic hypoglycemia (plasma glucose <=70 mg/dL [3.9 mmol/L]): Number of patients with events (type 2 diabetic patients [2]): 37 (22.8%) n (%) | Probable symptomatic hypoglycemia: Number of events (type 2 diabetic patients [2]): 5 | Probable symptomatic hypoglycemia: Number of events per 100 patient years (type 2 diabetic patients [2]): 6.6 events per 100 patient years | Probable symptomatic hypoglycemia: Number of patients with events (type 2 diabetic patients [2]): 5 (3.1%) n (%) | Severe symptomatic hypoglycemia: Number of events (type 2 diabetic patients [2]): 0 | Severe symptomatic hypoglycemia: Number of events per 100 patient years (type 2 diabetic patients [2]): 0.0 events per 100 patient years | Severe symptomatic hypoglycemia: Number of patients with events (type 2 diabetic patients [2]): 0 n (%) | Symptomatic hypoglycemia: Number of events per 100 patient years (type 2 diabetic patients [2]): 111.1 events per 100 patient years | Symptomatic hypoglycemia: Number of events (type 2 diabetic patients [2]; TEAE period): 84 | Symptomatic hypoglycemia: Number of patients with events (type 2 diabetic patients [2]; documented, probable and severe, TEAE period): 40 (24.7%) n (%) | Injection site reaction (type 2 diabetic patients [3]; ARAC diagnosis terms, Safety population): 0 n (%) | Rhinitis allergic (ARAC diagnosis ALLERGIC RHINITIS) (type 2 diabetic patients [3]; Not related to IMP, Safety population): 1 (0.6%) n (%) | Events adjudicated as an allergic reaction by ARAC (type 2 diabetic patients [3]; Not related to IMP, TEAE period, Safety population): 1 (0.6%) n (%) | Any injection site reactions (type 2 diabetic patients [3]; TEAE period, Safety population): 1 (0.6%) n (%) | Injection site reactions: PTs coded from the ARAC diagnosis terms (type 2 diabetic patients [3]; TEAE period, Safety population): 0 n (%) | Injection site reactions: PTs coded from the investigator reported terms (type 2 diabetic patients [3]; TEAE period, Safety population): 1 (0.6%) n (%) | Patients who experienced injection site reactions (type 2 diabetic patients [3]; in vivo): 1 patients | Injection site pain (type 2 diabetic patients [3]; [8]): 1 (0.6%) n (%) | Injection site pruritus (type 2 diabetic patients [3]; [8]): 0 n (%) | Injection site rash (type 2 diabetic patients [3]; [8]): 0 n (%) | Injection site urticaria (type 2 diabetic patients [3]; [8]): 0 n (%) | Rhinitis allergic (ARAC diagnosis ALLERGIC RHINITIS) (type 2 diabetic patients [3]; relationship to study treatment: All, Safety population): 1 (0.6%) n (%) | Events adjudicated as an allergic reaction by ARAC (type 2 diabetic patients [3]; relationship to study treatment: All, TEAE period, Safety population): 1 (0.6%) n (%) | TEAE: HLGT: Infections - pathogen unspecified (type 2 diabetic patients [4]): 31 (19.1%) n (%) | TEAE: HLGT: Ocular infections, irritations and inflammations (type 2 diabetic patients [4]): 4 (2.5%) n (%) | TEAE: HLGT: Viral infectious disorders (type 2 diabetic patients [4]): 8 (4.9%) n (%) | TEAE: HLT: Abdominal and gastrointestinal infections (type 2 diabetic patients [4]): 1 (0.6%) n (%) | TEAE: HLT: Conjunctival infections, irritations and inflammations (type 2 diabetic patients [4]): 2 (1.2%) n (%) | TEAE: HLT: Diarrhoea (excl infective) (type 2 diabetic patients [4]): 6 (3.7%) n (%) | TEAE: HLT: Upper respiratory tract infections (type 2 diabetic patients [4]): 21 (13.0%) n (%) | TEAE: HLT: Urinary tract infections (type 2 diabetic patients [4]): 3 (1.9%) n (%) | TEAE: Infections and infestations (type 2 diabetic patients [4]): 38 (23.5%) n (%) | TEAE: Upper respiratory tract infection (type 2 diabetic patients [4]): 5 (3.1%) n (%) | TEAE: Urinary tract infection (type 2 diabetic patients [4]): 1 (0.6%) n (%) | Treatment emergent SAE: HLGT: Infections - pathogen unspecified (type 2 diabetic patients [4]): 1 (0.6%) n (%) | Treatment emergent SAE: HLT: Urinary tract infections (type 2 diabetic patients [4]): 1 (0.6%) n (%) | Treatment emergent SAE: Infections and infestations (type 2 diabetic patients [4]): 1 (0.6%) n (%) | Treatment emergent SAE: Urinary tract infection (type 2 diabetic patients [4]): 1 (0.6%) n (%) | TEAE: HLT: Dental and oral soft tissue infections (type 2 diabetic patients [4]; po): 3 (1.9%) n (%) | Body weight at Week 24 (LOCF), Mean (SD) (Body weight (Example 1); mITT population): 92.09 (16.30) kg | Body weight at Week 24 (LOCF), Median (Body weight (Example 1); mITT population): 91.00 kg | Body weight change from baseline to Week 24 (LOCF), Mean (SD) (Body weight (Example 1); mITT population): 0.39 (2.96) kg | Body weight change from baseline to Week 24 (LOCF), Median (Body weight (Example 1); mITT population): 0.35 kg | Body weight change from baseline to Week 24 (LOCF), LS Mean (SE) (Body weight (Example 1); mITT population): 0.48 (0.282) kg | Body weight change from baseline to Week 24 (LOCF), LS Mean (SE) (Body weight (Example 1); mITT population, listed as insulin glargine): +0.48 kg | LS mean body weight increase from baseline to week 24 (Body weight (Example 1); worded as increased by): 0.48 kg | Patients who prematurely discontinued the IMP (type 2 diabetic patients [5]): 3 (1.9%) n (%) | Treatment discontinuation, reason adverse event (type 2 diabetic patients [5]): 0 n (%) | Patients with 1 value of calcitonin ≥20 pg/ml (but <50 pg/ml) (type 2 diabetic patients [6]): One | Patients with TEAE of amylase increased (>2 ULN) reported on the specific AE form (type 2 diabetic patients [6]): 1 patient | Patients with TEAE of lipase increased (>2 ULN) reported on the specific AE form (type 2 diabetic patients [6]): 1 [0.6%] n (%) | Patients with at least 1 value of amylase ≥3 ULN (type 2 diabetic patients [6]): One | Patients with at least 1 value of lipase ≥3 ULN (type 2 diabetic patients [6]): 1 patients | Events adjudicated as major cardiovascular events by CAC (type 2 diabetic patients [7]): one | Patients with events adjudicated as major cardiovascular events by CAC (type 2 diabetic patients [7]): one
